T1: Gli2-ZF-GFP (human, UniProt P10070 418-604)
T1 sequence (looked up): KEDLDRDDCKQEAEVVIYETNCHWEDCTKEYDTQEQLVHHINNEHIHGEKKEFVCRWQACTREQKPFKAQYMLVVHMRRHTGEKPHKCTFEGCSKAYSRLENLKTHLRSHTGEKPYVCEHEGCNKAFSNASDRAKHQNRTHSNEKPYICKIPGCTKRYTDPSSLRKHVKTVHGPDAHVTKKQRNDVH

T2: Gli2-ZF, zinc-finger domain of Gli2 (recombinant) (human, UniProt P10070 418-604)
T2 sequence (looked up): T1 sequence (looked up)

B1: Gli2-ZF-SNAP (domain or fragment, human, UniProt P10070 418-604, looked up)
chain: T1 sequence (looked up)
modifications: Alexa-647 label (in the TIRF assays)
B2: Kif7-CC-GFP (domain or fragment, human, UniProt Q2M1P5 460-600, looked up)
chain: PDSGIESASVEDQAAQGAGGRKEDEGAQQLLTLQNQVARLEEENRDFLAALEDAMEQYKLQSDRLREQQEEMVELRLRLELVRPGWGGPRLLNGLPPGSFVPRPHTAPLGGAHAHVLGMVPPACLPGDEVGSEQRGEQVTN
B3: GST-Kif7-CC D505A (domain or fragment, human, UniProt Q2M1P5 460-600, looked up)
chain: B2 chain with D46A
B4: GFP-tagged GST-Kif7-CC (domain or fragment, human, UniProt Q2M1P5 460-600, looked up)
chain: B2 chain
B5: GST-Kif7-CC (460-600aa) (domain or fragment, human, UniProt Q2M1P5 460-600, looked up)
chain: B2 chain
B6: Kif7-DM-GFP (1-543aa), dimeric Kif7 protein (domain or fragment, human, UniProt Q2M1P5 1-543, looked up)
chain: MGLEAQRLPGAEEAPVRVALRVRPLLPKELLHGHQSCLQVEPGLGRVTLGRDRHFGFHVVLAEDAGQEAVYQACVQPLLEAFFEGFNATVFAYGQTGSGKTYTMGEASVASLLEDEQGIVPRAMAEAFKLIDENDLLDCLVHVSYLEVYKEEFRDLLEVGTASRDIQLREDERGNVVLCGVKEVDVEGLDEVLSLLEMGNAARHTGATHLNHLSSRSHTVFTVTLEQRGRAPSRLPRPAPGQLLVSKFHFVDLAGSERVLKTGSTGERLKESIQINSSLLALGNVISALGDPQRRGSHIPYRDSKITRILKDSLGGNAKTVMIACVSPSSSDFDETLNTLNYASRAQNIRNRATVNWRPEAERPPEETASGARGPPRHRSETRIIHRGRRAPGPATASAAAAMRLGAECARYRACTDAAYSLLRELQAEPGLPGAAARKVRDWLCAVEGERSALSSASGPDSGIESASVEDQAAQGAGGRKEDEGAQQLLTLQNQVARLEEENRDFLAALEDAMEQYKLQSDRLREQQEEMVELRLRLELVRP
B7: Kif7-DM(E502A)-GFP (domain or fragment, human, UniProt Q2M1P5 1-543, looked up)
chain: B6 chain with E502A
B8: GST-Kif7-SCC (481-543aa) (domain or fragment, human, UniProt Q2M1P5 481-543, looked up)
chain: KEDEGAQQLLTLQNQVARLEEENRDFLAALEDAMEQYKLQSDRLREQQEEMVELRLRLELVRP

Data set [1] addresses Kif27M-Kif7CC chimera (GFP) (human). In words: SEC. In general terms: Size exclusion chromatography separates by hydrodynamic size, large species first.
The target of data set [2] is Kif7M-Kif27CC chimera (GFP) (human). In words: SEC.
Data set [3] concerns the target B6. Kind of data set: TIRF microscopy of proteins on immobilised microtubules.
The data set “Kif7-DM(E502A)-GFP” addresses B7. The data set is described as above.
The target of a further data set is T1, Gli2-ZF-GFP. Kind of data set: SEC.
Data set [4] concerns the target T2, Gli2-ZF, zinc-finger domain of Gli2 …. In words: BLI.
Data set [5] deals with the molecule itself. Kind of data set: single molecule fluorescence intensity and photobleaching analysis.
Data set [6] deals with GDP-taxol stabilized microtubules from bovine tubulin (co-sedimentation) (bovine) (UniProt Q6B856). In words: co-sedimentation.
For data set [7] the target is unchanged. Kind of data set: co-sedimentation. This is another data set of the same source.
The data set “SEC” concerns the molecule itself. Kind of data set: SEC.

Positions count from the first letter of the chain named. Names may count otherwise. Where two headings read alike, the source gives them in different places.

Broadly, the stoichiometry N is the number of molecules, sites or subunits per partner or assembly. As usually defined, the Kd is the constant that tells how readily two partners part at equilibrium.

Kif27M-Kif7CC chimera (GFP) registered a stoichiometry N in data set [1] of 2. The molecule Kif7M-Kif27CC chimera (GFP) had a stoichiometry N in data set [2] of 2.

B1: the “fold above the background fluorescence of Gli alone on microtubules” value in data set [3] is roughly 3 fold. In addition, in the data set with Kif7-DM(E502A)-GFP, the binding result is given as “binds”.

For the molecule B2, the “stoichiometry N” value with Gli2-ZF-GFP was 2 Kif7-CC-GFP per Gli2-ZF-GFP. For B3, in [4], the binding result is recorded as “binds”. As to B4, the “stoichiometry N” value in data set [5] amounted to 2. For B5, the dissociation constant Kd in data set [4] was 48 ± 5 nM.

Regarding B6, the values for the dissociation constant (Kd) in data set [6] and in data set [7] were 4.23 µM and 540 nM, respectively. In addition, in the data set with Gli2-ZF-GFP, the “stoichiometry N” value worked out at 1 Kif7-DM per Gli2-ZF. For the molecule B7, in the data set “SEC”, the “stoichiometry N” value turned out to be 2. As for B8, the dissociation constant Kd in data set [4] amounted to 69 ± 20 nM.

For the origin of these results see article doi:10.1101/2021.09.30.462597 (bioRxiv, 2021).
